Read-outs that look alike come from different tables or passages of the source.
How the values were obtained:
[1] = molecular target: T1, RBD-His (SinoBiological, 40592-V08H) (SARS-COV-2, UniProt P0DTC2 319-541)
[2] = molecular target: SARS-COV-2 S protein, variant B1.1.7 (Alpha), on MLV pseudotyped particles (SARS-COV-2, UniProt P0DTC2 14-1254); experiment: cell-based or functional assay
[3] = molecular target: T2, RBD-mFc recombinant protein (Sino Biological, 40592-V05H) (SARS-COV-2, UniProt P0DTC2 319-541); experiment: BLI (Octet), RBD-mFc as load, 1-2G-Fc as analyte, global fit (FIG. 11C)
T2 construct: domain: RBD

[4] = molecular target: T2, RBD-mFc recombinant protein (Sino …); experiment: BLI (Octet), 1-2G-Fc as load, RBD-mFc as analyte, global fit (FIG. 11A)
[5] = molecular target: T1, RBD-His (SinoBiological, 40592-V08H); remark: listed apart in the source
[6] = molecular target: T3, S1-hFc recombinant protein (Sino Biological, printed 4059I-V02H) (SARS-COV-2, UniProt P0DTC2 16-685)
[7] = molecular target: T2, RBD-mFc recombinant protein (Sino …)
[8] = molecular target: T1, RBD-His (SinoBiological, 40592-V08H)
[9] = molecular target: T1, RBD-His (SinoBiological, 40592-V08H); remark: listed apart in the source
[10] = molecular target: T3, S1-hFc recombinant protein (Sino …); remark: listed apart in the source
[11] = molecular target: T2, RBD-mFc recombinant protein (Sino …); remark: listed apart in the source
[12] = molecular target: T1, RBD-His (SinoBiological, 40592-V08H); remark: listed apart in the source

B1: RBD-1-2G-Fc (Fc fusion)
chain: EVQLVESGGGLVQPGGSLRLSCAASGFSSIVYMGWFRQAPGKGRELVAAIDASGSTTNYPDSVEGRFTISRDNAKRMVYLQMNSLRAEDTAVYYCAIAYFTSPEYVVSQGWGQGTQVTVSS
notes: also called bivalent format of RBD-1-2G
- koff [1]: 0.00018 s⁻¹
- kon [1]: 91000 M⁻¹ s⁻¹
- IC50, pseudotyped particle entry assay, B.1.1.7 particles [2]: 17.5 nM
- koff [3]: 0.0005 s⁻¹
- kon [3]: 73000 M⁻¹ s⁻¹
- koff [4]: 0.0017 s⁻¹
- kon [4]: 83000 M⁻¹ s⁻¹
- Kd [5]: 1.9 nM

B2: single-domain antibody RBD-1-2G (VHH)
VHH: B1 chain
notes: also called RBD-1-2G Nb; RBD-1-2G nanobody
- koff [6]: 0.0002 s⁻¹
- kon [6]: 29500 M⁻¹ s⁻¹
- koff [7]: 0.00024 s⁻¹
- kon [7]: 25400 M⁻¹ s⁻¹
- IC50, pseudotyped particle entry assay, B.1.1.7 particles [2]: 746 nM
- Kd [8]: 14.3 nM
- koff [9]: 0.0011 s⁻¹
- kon [9]: 752000 M⁻¹ s⁻¹
- Kd [10]: 6.9 nM
- Kd [11]: 9.4 nM

B3: RBD-1-2G-Tri (bispecific antibody)
chain: EVQLVESGGGLVQPGGSLRLSCAASGFSSIVYMGWFRQAPGKGRELVAAIDASGSTTNYPDSVEGRFTISRDNAKRMVYLQMNSLRAEDTAVYYCAIAYFTSPEYVVSQGWGQGTQVTVSSGGGGSGGGGSGGGGSEVQLVESGGGLVQPGGSLRLSCAASGFSSIVYMGWFRQAPGKGRELVAAIDASGSTTNYPDSVEGRFTISRDNAKRMVYLQMNSLRAEDTAVYYCAIAYFTSPEYVVSQGWGQGTQVTVSSGGGGSGGGGSGGGGSEVQLVESGGGLVQPGGSLRLSCAASGFSSIVYMGWFRQAPGKGRELVAAIDASGSTTNYPDSVEGRFTISRDNAKRMVYLQMNSLRAEDTAVYYCAIAYFTSPEYVVSQGWGQGTQVTVSSHHHHHH
- koff [12]: 7e-05 s⁻¹
- kon [12]: 600000 M⁻¹ s⁻¹
- IC50, pseudotyped particle entry assay, B.1.1.7 particles [2]: 0.3 nM
- Kd [5]: 0.1 nM

Source: patent US20240401239A1 (US Dept. of Health and Human Services, published 2024)
